In article PMC11468790, “New Bacterial Aryl Sulfotransferases: Effective Tools for Sulfation of Polyphenols” (Journal of Agricultural and Food Chemistry, 2024):

How the values were obtained:
[1] = tested on: O=[N+]([O-])c1ccc(OS(=O)(=O)O)cc1; assay: purified protein; details: varied donor pNPS 0.02-50 mM, acceptor phenol (5-200 mM), 30 °C, activity buffer Tris-glycine pH 8.9
[2] = tested on: T1, O=[N+]([O-])c1ccc(OS(=O)(=O)O)cc1; assay: purified protein; type: biochemical, Desulfosporosinus sp. HMP52; details: varied donor pNPS 0.02-50 mM, acceptor phenol (5-200 mM), 30 °C, activity buffer Tris-glycine pH 8.9
T1 construct: C-terminal His6 tag, pET-26b(+) NcoI/SacI, E. coli BL21(DE3)pLysS, IMAC, ca. 70 kDa

DalAST (Desulfofalx alkaliphila)
Km [1]: 34 ± 2 µM
kcat [1]: 0.705 ± 0.007 s⁻¹
kcat/Km [1]: 21000 M⁻¹ s⁻¹

DsAST (Desulfosporosinus sp. HMP52)
Km [2]: 570 ± 20 µM
kcat [2]: 32.5 ± 0.4 s⁻¹
kcat/Km [2]: 57000 M⁻¹ s⁻¹
